Assay results: patent publication US20220017612A1 (TILOS THERAPEUTICS, published 2022)
Blank lines part the entries; values can stand above or below the binder they belong to.

Columns and labels:
[1] = biological target: T1, human LAP-TGFβ1 overexpressed on cells (human, UniProt P01137 30-390); experiment: cell-based or functional assay
[2] = biological target: T2, mature human TGFβ1 (free TGFβ1, without LAP) (human, UniProt P01137 279-390); experiment: TGFβ1 ELISA after pre-incubation of 1000 pg mature TGFβ1 with antibody; loss of signal reflects binding
T2 construct: also called mature TGFβ; free human TGFβ1
Method: To determine whether anti-LAP antibodies 28G11_hIgG1, 22F9_hIgG1, 20E6_hIgG1, 17G8_hIgG1, and 24E3_hIgG1, bind to free human TGFβ1 (i.e., mature TGFβ1 that lacks LAP), the ability of the antibodies to inhibit an anti-TGFβ ELISA was evaluated. Briefly, mature TGFβ1 (1000 pg) was incubated with the indicated anti-LAP antibodies at 10 μg/mL, an isotype control antibody as a negative control or the commercially available anti-TGFβ antibody 1D11 as a positive control for 10 minutes on ice. For example, the 1D11 antibody is commercially available from any number of sellers, for example Bio x Cell Inc. (West Lebanon, N.H.). Supernatants were assayed in a TGFβ1 ELISA (R&D Systems) according to the manufacturer instructions to measure free TGFβ1. […] Note that Figure and FIG. are used interchangeably in this application.

[3] = biological target: T3, fusion protein of a human IgG1 Fc domain and human LAP-TGFβ1 (human, UniProt P01137 30-390); experiment: BLI, signal change on binding
T3 construct: printed both as Fc-huB1 and LAP-TGFβ-Fc; also called Fc-huB1; Fc-human LAP
Method: Binding to human TGFβ1 of a subset of candidates was also tested by bio-layer interferometry (Octet). A streptavidin coated tip was equilibrated for 60 seconds in binding buffer (10 mM sodium phosphate, 150 mM sodium chloride, 1% bovine serum albumin, 0.05% sodium azide). The tip was then dipped in 10 μg/mL biotinylated antibody in binding buffer. After 15 seconds, the tip was washed in binding buffer for 60 seconds, and then dipped in 0-24 nM Fc-human LAP. Analyte association was measured for 5 minutes. The tip was transferred to binding buffer alone, and analyte dissociation was measured for 5 minutes. The association and dissociation data were fit to a 1:1 binding model.

[4] = biological target: T1, human LAP-TGFβ1 overexpressed on cells; experiment: cell-based or functional assay; remark: listed apart in the source
[5] = biological target: T4, fusion protein of a human IgG1 Fc domain and human LAP-TGFβ2 (human, UniProt P61812 21-414); experiment: bio-layer interferometry, biotinylated antibody on streptavidin tip, Fc-huB2 in solution
T4 construct: also called Fc-huB2; human LAP-TGFβ2-Fc
T4 sequence: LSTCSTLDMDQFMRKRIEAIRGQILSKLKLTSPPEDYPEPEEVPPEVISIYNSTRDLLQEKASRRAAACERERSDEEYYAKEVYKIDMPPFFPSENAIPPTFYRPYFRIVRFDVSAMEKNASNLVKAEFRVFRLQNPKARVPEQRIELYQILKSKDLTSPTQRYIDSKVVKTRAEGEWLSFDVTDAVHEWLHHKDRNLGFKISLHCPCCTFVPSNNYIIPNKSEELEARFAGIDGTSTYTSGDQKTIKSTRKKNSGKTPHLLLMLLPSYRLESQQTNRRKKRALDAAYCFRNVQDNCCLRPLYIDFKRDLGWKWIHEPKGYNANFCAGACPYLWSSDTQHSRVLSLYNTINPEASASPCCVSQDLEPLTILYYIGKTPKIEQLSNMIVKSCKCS
Method: (§1) The 20E6_H0.2aL1_IgG1 antibody was biotinylated using EZ-Link SulfoNHS-LC-Biotin (ThermoFisher). A streptavidin-functionalized tip was equilibrated in binding buffer (10 mM sodium phosphate, 150 mM sodium chloride, 1% (w/v) bovine serum albumin, 0.05% (w/v) sodium azide, pH 7.4) and dipped in a 10 μg/mL solution of biotinylated anti-LAP in binding buffer for 30 seconds to load the tip with antibody. The antibody-loaded tip was then washed in binding buffer and placed in a solution containing 0-24 nM of a fusion protein having a human IgG1 Fc domain fused to either human LAP-TGFβ1, human LAP-TGFβ2 or human LAP-TGFβ3. The antigen was allowed to bind to antibody for 5 minutes (association phase), and then the tip was moved to binding buffer (dissociation phase). The association and dissociation phases were fit to a 2:1 heterogenous ligand binding model to determine the binding rate constants. As shown in FIG. 21A and Table 17, 20E6_H0.2aL1_IgG1 bound with sub-nanomolar affinity to human LAP-TGFβ1, but not to human LAP-TGFβ2 (FIG. 21B) or LAP-TGFβ3 (FIG. 21C).

[6] = biological target: T3, fusion protein of a human IgG1 Fc …; experiment: BLI, 2:1 heterogeneous ligand model, component 2
Method: as §1

[7] = biological target: T3, fusion protein of a human IgG1 Fc …; experiment: BLI, 2:1 model, component 1
Method: A streptavidin-functionalized tip was equilibrated in binding buffer (10 mM sodium phosphate, 150 mM sodium chloride, 1% (w/v) bovine serum albumin, 0.05% (w/v) sodium azide, pH 7.4) and dipped in a 5 μg/mL solution of biotinylated antibody (i.e., 20E6_H0.2aL1_hIgG1, murine 16F4, or MHG8, a GARP-specific murine IgG2a described in Lienart et al. Science 2018; 362:952-956) in binding buffer for 30 seconds to load the tip with antibody. The antibody-loaded tip was then washed in binding buffer and placed in a solution containing 0-24 nM of a fusion protein containing a human IgG1 Fc domain fused to either human LAP-TGFβ1, the soluble GARP-LAP-TGFβ1 complex, or the soluble ECR3E-LAP-TGFβ1 complex. The antigen was allowed to bind to antibody for 5 minutes (association phase), and then the tip was moved to binding buffer (dissociation phase). The binding and dissociation data for 16F4 and MHG8 were well-fit by a 1:1 binding model. The association and dissociation phases for 20E6_H0.2aL1_hIgG1 antibody were fit to a 2:1 heterogenous ligand binding model to determine the binding rate constants.
As shown in FIG. 24 and Table 21, the 20E6_H0.2aL1_hIgG1 antibody bound to free LAP-TGFβ1 and the soluble GARP-LAP-TGFβ1 complex with nanomolar affinity, but not to the ECR3E-LAP-TGFβ1 complex. As expected, the anti-GARP antibody (MHG8) bound to the GARP-LAP-TGFβ1 complex, but not to free LAP-TGFβ1 or the ECR3E-LAP-TGFβ1 complex. 16F4 bound tightly to all three constructs.

T1 sequence (P01137 30-390): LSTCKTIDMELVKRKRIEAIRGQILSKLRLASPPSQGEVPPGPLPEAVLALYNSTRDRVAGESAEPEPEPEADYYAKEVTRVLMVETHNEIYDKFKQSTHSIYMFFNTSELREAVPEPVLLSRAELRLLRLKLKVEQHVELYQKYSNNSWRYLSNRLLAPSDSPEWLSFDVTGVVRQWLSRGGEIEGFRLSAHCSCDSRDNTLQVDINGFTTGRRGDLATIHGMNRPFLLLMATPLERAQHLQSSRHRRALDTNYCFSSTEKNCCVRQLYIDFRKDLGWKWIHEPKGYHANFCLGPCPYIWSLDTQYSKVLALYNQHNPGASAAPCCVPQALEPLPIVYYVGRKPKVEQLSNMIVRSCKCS
T3 sequence (P01137 30-390 limits assumed): as the sequence (P01137 30-390) above
T2 sequence (P01137 279-390 limits assumed): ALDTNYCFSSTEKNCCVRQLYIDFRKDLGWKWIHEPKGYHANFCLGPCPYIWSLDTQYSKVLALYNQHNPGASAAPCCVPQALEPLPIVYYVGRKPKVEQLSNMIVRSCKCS

- Inhibition of human TGFβ1 activation (IC50) [1]: 3.9 µg/mL
- binding result [2]: no binding (tested: 10 µg/mL)
- Binding (nm) [3]: 0.27 nm
- IC50 of inhibition of TGFβ1 activation [4]: 1.8 µg/mL
B1: 22F9_hIgG1 (antibody, V domains shown)
VH: QVQLQQPGAELVKPGASVKLSCKASGYTFTSYWMHWVKQRPGQGLEWIGMIHPNSGSTNYNEKFKSKATLTVDKSSSTAYMQLSSLTSEDSAVYYCAYYDYDGFFDVWGTGTTVTVSS
VL: DIVLTQSPASLDVSLGQRATISCRASKSVSTSGYSYMHWYQQKSGQPPKLLIYLASNLESGVPARFSGSGSGTHFTLNIHPVEEEDAATYYCQHSRELPYTFGGGTKLEIK

- binding result [5]: no binding (tested: 24 nM)
- Kd [6]: 0.35 nM
- koff [6]: 0.000409 s⁻¹
- kon [6]: 1.18e+06 M⁻¹ s⁻¹
- Kd [7]: 16.2 nM
- koff [7]: 0.0406 s⁻¹
- kon [7]: 2.51e+06 M⁻¹ s⁻¹
- IC50 of inhibition of TGFβ1 activation [4]: 1.3 µg/mL
B2: 20E6_H0.2aL1_hIgG1 (antibody)
heavy: not shown
light: DIQMTQSPSSLSASVGDRVTITCRASQDITNYLNWYQQKPGKAVKLLIYYTSRLHSGVPSRFSGSGSGTDYTLTISSLQPEDFATYFCQQGDTLPWTFGQGTKLEIKRTVAAPSVFIFPPSDEQLKSGTASVVCLLNNFYPREAKVQWKVDNALQSGNSQESVTEQDSKDSTYSLSSTLTLSKADYEKHKVYACEVTHQGLSSPVTKSFNRGEC
notes: also called 20E6_H0.2aL1_IgG1; humanized 20E6
